Source: US7521047 (GPC BIOTECH, dated 2009)
Substitutions are numbered along the chain they refer to. Values belong to the binder of their own block, whether it stands above or below them.

What was measured:
[1] = molecular target: T1, human MHC class II DR protein (DRA*0101/DRB1*0401), purified from PRIESS cells (human, UniProt P01903 26-254; P01911 30-266, limits assumed); assay: SPR (BIAcore), scFv, chip density 500 RU MHCII
T1 construct: mature; also called HLA-DR protein; MHCII
T1 MHC II alpha: not shown
T1 MHC II beta: not shown

[2] = molecular target: chimeric 0401-IE class II molecule on cells of transgenic mice (human/murine chimera); assay: cell-based or functional assay
[3] = molecular target: T1, human MHC class II DR protein …; assay: SPR (BIAcore), MHCII on CM5 chip
[4] = molecular target: T1, human MHC class II DR protein …; assay: SPR (BIAcore), MHCII on CM5 chip
[5] = molecular target: T1, human MHC class II DR protein …; assay: ELISA, coated antigen, Fab 100 ng/well, read at 370 nm
Method: (§1) After washing in PBS the anti-human IgG F(ab')_2-peroxidase-conjugate at a 1:10,000 dilution in TBS (supplemented with 5% w/v non-fat drymilk/0.05% v/v Tween 20) was added to each well for 1 h. Final washes were carried out in PBS followed the addition the substrate POD (Roche).

[6] = molecular target: T2, BSA (bovine, UniProt P02769 25-607); assay: as above
T2 construct: negative control antigen; also called bovine serum albumine
Method: as §1

[7] = molecular target: T3, lysozyme; assay: as above
T3 construct: negative control antigen
Method: as §1

[8] = molecular target: T1, human MHC class II DR protein …; assay: BiaCore, IgG4
Method: The affinities for anti-HLA antibody fragments of the invention were measured as follows. All measurements were conducted in HBS buffer (20 mM HEPES, 150 mM NaCl, pH 7.4) at a flow rate of 20 µl/min at 25° C. on a BIAcore3000 instrument (Biacore AB, Sweden). MHC class II DR protein (prepared as example 1) was diluted in 100 mM sodium acetate pH 4.5 to a concentration of […], and coupled to a CM5 chip (Biacore AB) using standard EDC-NHS coupling chemistry with subsequent ethanolamine treatment as manufacturers directions. The coating density of MHCII was adjusted to between 500 and 4000 RU. Affinities were measured by injection of 5 different concentrations of the different antibodies and using the standard software of the Biacore instrument. Regeneration of the coupled surface was achieved using 10 mM glycine pH 2.3 and 7.5 mM NaOH.

[9] = molecular target: T4, HLA-DR (DRA*0101/DRB1*0401) on PRIESS cells (human, UniProt P01903 26-254; P01911 30-266); assay: cell-based or functional assay
T4 MHC II alpha: not shown
T4 MHC II beta: not shown

[10] = molecular target: HLA-DR on ARH-77 cells (human); assay: cell-based or functional assay
[11] = molecular target: HLA-DR on GRANTA-519 cells (human); assay: cell-based or functional assay
[12] = molecular target: HLA-DR on KARPAS-422 cells (human); assay: cell-based or functional assay
[13] = molecular target: HLA-DR on KARPAS-299 cells (human); assay: cell-based or functional assay
[14] = molecular target: HLA-DR on DOHH-2 cells (human); assay: cell-based or functional assay
[15] = molecular target: HLA-DR on SR-786 cells (human); assay: cell-based or functional assay
[16] = molecular target: HLA-DR on MHH-CALL-4 cells (human); assay: cell-based or functional assay
[17] = molecular target: HLA-DR on MN-60 cells (human); assay: cell-based or functional assay
[18] = molecular target: HLA-DR on BJAB cells (human); assay: cell-based or functional assay
[19] = molecular target: HLA-DR on RAJI cells (human); assay: cell-based or functional assay
[20] = molecular target: HLA-DR on L-428 cells (human); assay: cell-based or functional assay
[21] = molecular target: HLA-DR on HDLM-2 cells (human); assay: cell-based or functional assay
[22] = molecular target: HLA-DR on HD-MY-Z cells (human); assay: cell-based or functional assay
[23] = molecular target: HLA-DR on KM-H2 cells (human); assay: cell-based or functional assay
[24] = molecular target: HLA-DR on L1236 cells (human); assay: cell-based or functional assay
[25] = molecular target: HLA-DR on BONNA-12 cells (human); assay: cell-based or functional assay
[26] = molecular target: HLA-DR on HC-1 cells (human); assay: cell-based or functional assay
[27] = molecular target: HLA-DR on NALM-1 cells (human); assay: cell-based or functional assay
[28] = molecular target: HLA-DR on L-363 cells (human); assay: cell-based or functional assay
[29] = molecular target: HLA-DR on EOL-1 cells (human); assay: cell-based or functional assay
[30] = molecular target: HLA-DR on LP-1 cells (human); assay: cell-based or functional assay
[31] = molecular target: HLA-DR on RPMI-8226 cells (human); assay: cell-based or functional assay
[32] = molecular target: HLA-DR on MHH-PREB-1 cells (human); assay: cell-based or functional assay
[33] = molecular target: T1, human MHC class II DR protein …; assay: SPR (BIAcore), IgG4 over MHCII on CM5 chip
[34] = molecular target: T2, BSA; assay: ELISA, purified coated protein, OD at 370 nm minus background
[35] = molecular target: HLA-DR on MHH-CALL-4 cells (human); assay: cell-based or functional assay; remark: listed apart in the source
[36] = molecular target: T1, human MHC class II DR protein …; assay: SPR (BIAcore), 3 preparations on 3 chips (500, 4000, 3000 RU)

T2 sequence (P02769 25-607 limits assumed): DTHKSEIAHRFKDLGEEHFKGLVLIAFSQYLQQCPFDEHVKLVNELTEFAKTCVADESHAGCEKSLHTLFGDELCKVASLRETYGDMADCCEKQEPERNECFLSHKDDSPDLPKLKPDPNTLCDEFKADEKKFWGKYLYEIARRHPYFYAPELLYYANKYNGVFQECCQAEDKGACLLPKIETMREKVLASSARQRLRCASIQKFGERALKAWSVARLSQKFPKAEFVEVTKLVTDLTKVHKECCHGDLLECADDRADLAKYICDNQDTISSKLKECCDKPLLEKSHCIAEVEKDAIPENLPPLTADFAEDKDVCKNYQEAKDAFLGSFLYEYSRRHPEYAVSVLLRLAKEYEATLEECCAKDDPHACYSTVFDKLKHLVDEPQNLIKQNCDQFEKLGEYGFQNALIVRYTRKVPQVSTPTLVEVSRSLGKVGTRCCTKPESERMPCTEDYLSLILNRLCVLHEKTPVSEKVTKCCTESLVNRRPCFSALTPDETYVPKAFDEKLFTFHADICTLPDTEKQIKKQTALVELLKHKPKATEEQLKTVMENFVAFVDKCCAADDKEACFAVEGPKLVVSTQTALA
T3 sequence (P00698 19-147): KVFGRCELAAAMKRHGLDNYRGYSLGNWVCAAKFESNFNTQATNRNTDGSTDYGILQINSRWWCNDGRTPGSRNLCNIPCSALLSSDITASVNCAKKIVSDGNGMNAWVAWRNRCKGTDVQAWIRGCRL

B1: MS-GPC-1 scFv (scFv)
chain: EVQLKESGPALVKPTQTLTLTCTFSGFSLSTSGVGVGWIRQPPGKALEWLALIDWDDDKYYSTSLKTRLTISKDTSKNQVVLTMTNMDPVDTATYYCARQYGHRGGFDHWGQGTLVTVSSAGGGSGGGGSGGGGSGGGGSDIVLTQPPSVSGAPGQRVTISCSGSSSNIGSNYVSWYQQLPGTAPKLLIYDNNQRPSGVPDRFSGSKSGTSASLAITGLQSEDEADYYCQSYDFNESVFGGGTKLTVLG
- Kd [1]: 1500 nM
- koff [1]: 0.061 s⁻¹
- kon [1]: 41300 M⁻¹ s⁻¹

B2: MS-GPC-8-6-47 Fab (Fab, V domains shown)
VH: QVQLKESGPALVKPTQTLTLTCTFSGFSLSTSGVGVGWIRQPPGKALEWLALIDWDDDKYYSTSLKTRLTISKDTSKNQVVLTMTNMDPVDTATYYCARSPRYRGAFDYWGQGTLVTVSS
VL: DIVLTQPPSVSGAPGQRVTISCSGSESNIGSNYVSWYQQLPGTAPKLLIYDNNQRPSGVPDRFSGSKSGTSASLAITGLQSEDEADYYCQSYDYDHYVFGGGTKLTVLG
notes: Fab: VH-CH1 with FLAG tag and STREP tag II, VL-CL; VH residue 1 is Q in Fab
- IC50 of inhibition of IL-2 secretion from T-Hyb 1 cells [2]: 2.6 nM (half the concentration of the Fab)
- Maximum inhibition(%) of IL-2 secretion [2]: 100%
- Kd [3]: 3.18 nM
- koff [3]: 0.00062 s⁻¹
- kon [3]: 197000 M⁻¹ s⁻¹
- Kd [4]: 3.2 nM
- koff [4]: 0.00062 s⁻¹
- kon [4]: 200000 M⁻¹ s⁻¹
- ELISA signal [5]: 1.4
- ELISA signal [6]: 0.008
- binding result [6]: no binding (tested: 100 ng/well)
- ELISA signal [7]: 0.013

B3: MS-GPC-8-6-13 IgG4 (antibody, V domains shown)
VH: B2 VH
VL: B2 VL with S31A, S35T
notes: human IgG4 (constant region EMBL K01316) with lambda constant region (EMBL M18645), from CHO-K1 cells; also called 305D3; IgG form of MS-GPC-8-6-13
- Kd [8]: 0.5 nM
- koff [8]: 3.3e-05 s⁻¹
- kon [8]: 71000 M⁻¹ s⁻¹
- % Killing by mAb, 50 nM, 4 h [9]: 74%
- % Killing by mAb, 50 nM, 4 h [10]: 87%
- % Killing by mAb, 50 nM, 4 h [11]: 73%
- % Killing by mAb, 50 nM, 4 h [12]: 71%
- % Killing by mAb, 50 nM, 4 h [13]: 76%
- % Killing by mAb, 50 nM, 4 h [14]: 53%
- % Killing by mAb, 50 nM, 4 h [15]: 26%
- % Killing by mAb, 50 nM, 4 h [16]: 43%
- % Killing by mAb, 50 nM, 4 h [17]: 67%
- % Killing by mAb, 50 nM, 4 h [18]: 64%
- % Killing by mAb, 50 nM, 4 h [19]: 83%
- % Killing by mAb, 50 nM, 4 h [20]: 92%
- % Killing by mAb, 50 nM, 4 h [21]: 90%
- % Killing by mAb, 50 nM, 4 h [22]: 72%
- % Killing by mAb, 50 nM, 4 h [23]: 87%
- % Killing by mAb, 50 nM, 4 h [24]: 66%
- % Killing by mAb, 50 nM, 4 h [25]: 86%
- % Killing by mAb, 50 nM, 4 h [26]: 93%
- % Killing by mAb, 50 nM, 4 h [27]: 65%
- % Killing by mAb, 50 nM, 4 h [28]: 19%
- % Killing by mAb, 50 nM, 4 h [29]: 53%
- % Killing by mAb, 50 nM, 4 h [30]: 73%
- % Killing by mAb, 50 nM, 4 h [31]: 19%
- % Killing by mAb, 50 nM, 4 h [32]: 11%
- IC50 of inhibition of IL-2 secretion from T-Hyb 1 cells [2]: 0.42 nM
- Maximum inhibition(%) of IL-2 secretion [2]: 100%
- Kd [33]: 0.5 nM
- koff [33]: 3e-05 s⁻¹
- kon [33]: 70000 M⁻¹ s⁻¹
- binding result [34]: no binding

B5: MS-GPC-8-6 Fab (Fab, V domains shown)
VH: B2 VH
VL: B2 VL with E26S
notes: as for B2
- maximum capacity to kill MHH-Call 4 cells [35]: 76%
- IC50 of inhibition of IL-2 secretion from T-Hyb 1 cells [2]: 20 nM (half the concentration of the Fab)
- Maximum inhibition(%) of IL-2 secretion [2]: 100%
- Kd [3]: 58.6 nM
- koff [3]: 0.00548 s⁻¹
- kon [3]: 96000 M⁻¹ s⁻¹
- Kd [36]: 58.6 nM
- koff [36]: 0.0055 s⁻¹
- kon [36]: 96000 M⁻¹ s⁻¹
- ELISA signal [5]: 1.31

More lines, now with the values ahead:

- IC50 of inhibition of IL-2 secretion from T-Hyb 1 cells [2]: 7.3 nM (half the concentration of the Fab)
- Maximum inhibition(%) of IL-2 secretion [2]: 100%
- Kd [3]: 3.01 nM
- koff [3]: 0.00053 s⁻¹
- kon [3]: 176000 M⁻¹ s⁻¹
- Kd [4]: 3 nM
- koff [4]: 0.00053 s⁻¹
- kon [4]: 180000 M⁻¹ s⁻¹
- ELISA signal [5]: 1.49
B4: MS-GPC-8-27-10 Fab (Fab, V domains shown)
VH: B2 VH
VL: B2 VL with S31A, S35N, Y94M, D95N, H96V, Y97H
notes: as for B2

- IC50 of inhibition of IL-2 secretion from T-Hyb 1 cells [2]: 3 nM (half the concentration of the Fab)
- Maximum inhibition(%) of IL-2 secretion [2]: 100%
- Kd [3]: 6.3 nM
- koff [3]: 0.0011 s⁻¹
- kon [3]: 180000 M⁻¹ s⁻¹
- Kd [4]: 6.3 nM
- koff [4]: 0.0011 s⁻¹
- kon [4]: 180000 M⁻¹ s⁻¹
- ELISA signal [5]: 1.3
- ELISA signal [6]: 0.003
- binding result [6]: no binding (tested: 100 ng/well)
- ELISA signal [7]: 0.006
B6: MS-GPC-8-6-27 Fab (Fab, V domains shown)
VH: B2 VH
VL: B2 VL with E26D, S31A, S35T
notes: as for B2

- IC50 of inhibition of IL-2 secretion from T-Hyb 1 cells [2]: 2.9 nM (half the concentration of the Fab)
- Maximum inhibition(%) of IL-2 secretion [2]: 100%
- ELISA signal [5]: 1.26
- ELISA signal [6]: 0.003
- binding result [6]: no binding (tested: 100 ng/well)
- ELISA signal [7]: 0.014
B7: MS-GPC-8-10-57 Fab (Fab, V domains shown)
VH: B2 VH
VL: B2 VL with S31N, S35Q, Y94L, D95I, H96R, Y97H
notes: Fab: VH-CH1 with FLAG tag and STREP tag II, VL-CL; VH residue 1 is Q in Fab; also called 1C7277
